In patent US20180155451A1 (published 2018):

T1: FcγRIIb extracellular domain with C-terminal His tag (human, UniProt P31994 43-217)
T1 construct: extracellular domain; expressed in FreeStyle293 cells; analyte in the Biacore assay; also called FcgRIIb; 2b; not shown: His tag at the C terminus
T1 sequence (looked up): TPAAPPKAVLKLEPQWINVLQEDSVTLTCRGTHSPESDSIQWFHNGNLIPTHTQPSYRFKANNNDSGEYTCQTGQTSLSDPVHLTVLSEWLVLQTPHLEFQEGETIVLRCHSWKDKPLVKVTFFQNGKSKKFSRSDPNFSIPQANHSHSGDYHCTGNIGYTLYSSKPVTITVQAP


What follows are binders tested against T1, FcγRIIb extracellular domain with … (assay: SPR (Biacore), captured antibody, FcγRIIb analyte; binding relative to GpH7-A5/GpH7-B3/GpL16-k0 = 100).

He/Con_2b | Binder
104 % of control | GpH7-A5/GpH7-B3 variant I332_04F/GpL16-k0 (antibody, human IgG1, kappa, heterodimerized; mutation in the B3 H chain only; also called He Ab I332_04F) heavy 1: not shown heavy 2: not shown light: DIVMTQSPLSLPVTPGEPASISCQASESLVHSNRNTYLHWYLQKPGQSPQLLIYKVSNRFSGVPDRFSGSGSGTDFTLKISRVEAEDVGVYYCSQNTHVPPTFGQGTKVEIERTVAAPSVFIFPPSDEQLKSGTASVVCLLNNFYPREAKVQWKVDNALQSGNSQESVTEQDSKDSTYSLSSTLTLSKADYEKHKVYACEVTHQGLSSPVTKSFNRGEC
105 % of control | GpH7-A5/GpH7-B3 variant I332_06M/GpL16-k0 (antibody, human IgG1, kappa, heterodimerized; mutation in the B3 H chain only; also called He Ab I332_06M) heavy 1: not shown heavy 2: not shown light: DIVMTQSPLSLPVTPGEPASISCQASESLVHSNRNTYLHWYLQKPGQSPQLLIYKVSNRFSGVPDRFSGSGSGTDFTLKISRVEAEDVGVYYCSQNTHVPPTFGQGTKVEIERTVAAPSVFIFPPSDEQLKSGTASVVCLLNNFYPREAKVQWKVDNALQSGNSQESVTEQDSKDSTYSLSSTLTLSKADYEKHKVYACEVTHQGLSSPVTKSFNRGEC
147 % of control | GpH7-A5/GpH7-B3 variant I332_09D/GpL16-k0 (antibody, human IgG1, kappa, heterodimerized; mutation in the B3 H chain only; also called He Ab I332_09D) heavy 1: not shown heavy 2: not shown light: DIVMTQSPLSLPVTPGEPASISCQASESLVHSNRNTYLHWYLQKPGQSPQLLIYKVSNRFSGVPDRFSGSGSGTDFTLKISRVEAEDVGVYYCSQNTHVPPTFGQGTKVEIERTVAAPSVFIFPPSDEQLKSGTASVVCLLNNFYPREAKVQWKVDNALQSGNSQESVTEQDSKDSTYSLSSTLTLSKADYEKHKVYACEVTHQGLSSPVTKSFNRGEC
142 % of control | GpH7-A5/GpH7-B3 variant I332_10E/GpL16-k0 (antibody, human IgG1, kappa, heterodimerized; mutation in the B3 H chain only; also called He Ab I332_10E) heavy 1: not shown heavy 2: not shown light: DIVMTQSPLSLPVTPGEPASISCQASESLVHSNRNTYLHWYLQKPGQSPQLLIYKVSNRFSGVPDRFSGSGSGTDFTLKISRVEAEDVGVYYCSQNTHVPPTFGQGTKVEIERTVAAPSVFIFPPSDEQLKSGTASVVCLLNNFYPREAKVQWKVDNALQSGNSQESVTEQDSKDSTYSLSSTLTLSKADYEKHKVYACEVTHQGLSSPVTKSFNRGEC
106 % of control | GpH7-A5/GpH7-B3 variant I332_14T/GpL16-k0 (antibody, human IgG1, kappa, heterodimerized; mutation in the B3 H chain only; label printed T332_14T, read as I332_14T; also called He Ab I332_14T) heavy 1: not shown heavy 2: not shown light: DIVMTQSPLSLPVTPGEPASISCQASESLVHSNRNTYLHWYLQKPGQSPQLLIYKVSNRFSGVPDRFSGSGSGTDFTLKISRVEAEDVGVYYCSQNTHVPPTFGQGTKVEIERTVAAPSVFIFPPSDEQLKSGTASVVCLLNNFYPREAKVQWKVDNALQSGNSQESVTEQDSKDSTYSLSSTLTLSKADYEKHKVYACEVTHQGLSSPVTKSFNRGEC
101 % of control | GpH7-A5/GpH7-B3 variant I332_15Y/GpL16-k0 (antibody, human IgG1, kappa, heterodimerized; mutation in the B3 H chain only; also called He Ab I332_15Y) heavy 1: not shown heavy 2: not shown light: DIVMTQSPLSLPVTPGEPASISCQASESLVHSNRNTYLHWYLQKPGQSPQLLIYKVSNRFSGVPDRFSGSGSGTDFTLKISRVEAEDVGVYYCSQNTHVPPTFGQGTKVEIERTVAAPSVFIFPPSDEQLKSGTASVVCLLNNFYPREAKVQWKVDNALQSGNSQESVTEQDSKDSTYSLSSTLTLSKADYEKHKVYACEVTHQGLSSPVTKSFNRGEC
107 % of control | GpH7-A5/GpH7-B3 variant I336_08L/GpL16-k0 (antibody, human IgG1, kappa, heterodimerized; mutation in the B3 H chain only; also called He Ab I336_08L) heavy 1: not shown heavy 2: not shown light: DIVMTQSPLSLPVTPGEPASISCQASESLVHSNRNTYLHWYLQKPGQSPQLLIYKVSNRFSGVPDRFSGSGSGTDFTLKISRVEAEDVGVYYCSQNTHVPPTFGQGTKVEIERTVAAPSVFIFPPSDEQLKSGTASVVCLLNNFYPREAKVQWKVDNALQSGNSQESVTEQDSKDSTYSLSSTLTLSKADYEKHKVYACEVTHQGLSSPVTKSFNRGEC
175 % of control | GpH7-A5/GpH7-B3 variant K326_03V/GpL16-k0 (antibody, human IgG1, kappa, heterodimerized; mutation in the B3 H chain only; also called He Ab K326_03V) heavy 1: not shown heavy 2: not shown light: DIVMTQSPLSLPVTPGEPASISCQASESLVHSNRNTYLHWYLQKPGQSPQLLIYKVSNRFSGVPDRFSGSGSGTDFTLKISRVEAEDVGVYYCSQNTHVPPTFGQGTKVEIERTVAAPSVFIFPPSDEQLKSGTASVVCLLNNFYPREAKVQWKVDNALQSGNSQESVTEQDSKDSTYSLSSTLTLSKADYEKHKVYACEVTHQGLSSPVTKSFNRGEC
155 % of control | GpH7-A5/GpH7-B3 variant K326_04F/GpL16-k0 (antibody, human IgG1, kappa, heterodimerized; mutation in the B3 H chain only; also called He Ab K326_04F) heavy 1: not shown heavy 2: not shown light: DIVMTQSPLSLPVTPGEPASISCQASESLVHSNRNTYLHWYLQKPGQSPQLLIYKVSNRFSGVPDRFSGSGSGTDFTLKISRVEAEDVGVYYCSQNTHVPPTFGQGTKVEIERTVAAPSVFIFPPSDEQLKSGTASVVCLLNNFYPREAKVQWKVDNALQSGNSQESVTEQDSKDSTYSLSSTLTLSKADYEKHKVYACEVTHQGLSSPVTKSFNRGEC
165 % of control | GpH7-A5/GpH7-B3 variant K326_06M/GpL16-k0 (antibody, human IgG1, kappa, heterodimerized; mutation in the B3 H chain only; also called He Ab K326_06M) heavy 1: not shown heavy 2: not shown light: DIVMTQSPLSLPVTPGEPASISCQASESLVHSNRNTYLHWYLQKPGQSPQLLIYKVSNRFSGVPDRFSGSGSGTDFTLKISRVEAEDVGVYYCSQNTHVPPTFGQGTKVEIERTVAAPSVFIFPPSDEQLKSGTASVVCLLNNFYPREAKVQWKVDNALQSGNSQESVTEQDSKDSTYSLSSTLTLSKADYEKHKVYACEVTHQGLSSPVTKSFNRGEC
177 % of control | GpH7-A5/GpH7-B3 variant K326_08L/GpL16-k0 (antibody, human IgG1, kappa, heterodimerized; mutation in the B3 H chain only; also called He Ab K326_08L) heavy 1: not shown heavy 2: not shown light: DIVMTQSPLSLPVTPGEPASISCQASESLVHSNRNTYLHWYLQKPGQSPQLLIYKVSNRFSGVPDRFSGSGSGTDFTLKISRVEAEDVGVYYCSQNTHVPPTFGQGTKVEIERTVAAPSVFIFPPSDEQLKSGTASVVCLLNNFYPREAKVQWKVDNALQSGNSQESVTEQDSKDSTYSLSSTLTLSKADYEKHKVYACEVTHQGLSSPVTKSFNRGEC
